In IntAct's records for PubMed 8922390:

How the values were obtained:
[1] = target: VCL, P12003-1
[2] = target: fak1_chick PTK2 (UniProt Q00944)
Sequence of fak1_chick PTK2 (Q00944 whole entry): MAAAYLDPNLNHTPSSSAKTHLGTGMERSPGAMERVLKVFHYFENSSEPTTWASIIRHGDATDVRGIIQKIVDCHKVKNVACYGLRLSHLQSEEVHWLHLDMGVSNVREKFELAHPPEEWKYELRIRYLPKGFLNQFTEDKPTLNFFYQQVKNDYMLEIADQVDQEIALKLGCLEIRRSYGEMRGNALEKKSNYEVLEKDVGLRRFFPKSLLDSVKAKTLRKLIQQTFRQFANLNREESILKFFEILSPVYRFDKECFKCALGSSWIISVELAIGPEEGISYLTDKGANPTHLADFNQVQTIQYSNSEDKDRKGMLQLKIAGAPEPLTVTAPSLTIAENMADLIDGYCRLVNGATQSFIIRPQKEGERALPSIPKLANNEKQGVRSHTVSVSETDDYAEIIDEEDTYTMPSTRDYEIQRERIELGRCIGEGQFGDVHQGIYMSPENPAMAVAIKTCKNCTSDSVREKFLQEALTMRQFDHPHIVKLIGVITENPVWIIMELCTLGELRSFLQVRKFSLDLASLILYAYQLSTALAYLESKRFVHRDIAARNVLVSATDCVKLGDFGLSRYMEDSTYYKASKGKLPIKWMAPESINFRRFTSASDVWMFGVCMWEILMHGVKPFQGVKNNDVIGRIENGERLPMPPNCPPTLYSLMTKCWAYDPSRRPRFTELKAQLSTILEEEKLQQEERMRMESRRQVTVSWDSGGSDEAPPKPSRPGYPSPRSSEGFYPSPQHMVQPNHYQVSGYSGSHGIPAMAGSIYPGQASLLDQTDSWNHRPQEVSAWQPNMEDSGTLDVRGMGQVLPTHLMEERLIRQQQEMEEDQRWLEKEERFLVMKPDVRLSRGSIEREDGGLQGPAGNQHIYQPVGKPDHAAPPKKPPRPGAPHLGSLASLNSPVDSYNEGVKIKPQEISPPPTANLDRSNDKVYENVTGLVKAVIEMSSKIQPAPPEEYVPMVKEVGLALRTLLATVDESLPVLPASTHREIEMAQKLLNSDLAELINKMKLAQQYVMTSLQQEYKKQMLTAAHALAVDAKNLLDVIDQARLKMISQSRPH

Sequence of VCL, P12003-1 (P12003 other isoform, or with tags, fused parts or gaps): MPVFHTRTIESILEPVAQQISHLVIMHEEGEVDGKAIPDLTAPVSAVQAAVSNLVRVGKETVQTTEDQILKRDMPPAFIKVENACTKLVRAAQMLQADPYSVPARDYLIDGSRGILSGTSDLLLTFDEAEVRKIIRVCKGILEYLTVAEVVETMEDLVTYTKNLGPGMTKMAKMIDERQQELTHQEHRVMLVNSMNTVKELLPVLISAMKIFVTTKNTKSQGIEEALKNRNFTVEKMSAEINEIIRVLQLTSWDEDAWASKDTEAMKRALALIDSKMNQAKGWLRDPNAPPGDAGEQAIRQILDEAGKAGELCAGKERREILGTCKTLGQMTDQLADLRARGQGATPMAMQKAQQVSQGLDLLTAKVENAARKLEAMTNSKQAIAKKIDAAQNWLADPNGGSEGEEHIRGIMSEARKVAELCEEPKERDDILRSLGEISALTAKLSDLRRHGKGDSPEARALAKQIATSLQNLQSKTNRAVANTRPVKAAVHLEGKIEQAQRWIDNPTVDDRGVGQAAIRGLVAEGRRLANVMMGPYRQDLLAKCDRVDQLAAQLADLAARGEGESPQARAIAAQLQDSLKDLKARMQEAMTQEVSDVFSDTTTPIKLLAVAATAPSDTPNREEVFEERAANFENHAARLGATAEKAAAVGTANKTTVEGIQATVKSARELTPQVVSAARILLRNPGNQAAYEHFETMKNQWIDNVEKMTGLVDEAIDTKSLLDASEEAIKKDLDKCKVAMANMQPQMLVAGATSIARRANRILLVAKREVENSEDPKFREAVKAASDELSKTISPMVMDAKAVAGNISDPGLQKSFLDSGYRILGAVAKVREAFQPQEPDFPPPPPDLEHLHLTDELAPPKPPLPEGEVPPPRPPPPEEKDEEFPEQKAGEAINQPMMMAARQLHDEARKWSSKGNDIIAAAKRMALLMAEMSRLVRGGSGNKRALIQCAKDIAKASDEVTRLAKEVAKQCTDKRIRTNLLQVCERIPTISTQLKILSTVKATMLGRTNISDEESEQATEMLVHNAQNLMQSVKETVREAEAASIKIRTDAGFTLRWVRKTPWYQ
Sequence of Paxillin (Gallus gallus (Chicken)), P49024 D146N;R147Q (P49024 whole entry D146N/R147Q): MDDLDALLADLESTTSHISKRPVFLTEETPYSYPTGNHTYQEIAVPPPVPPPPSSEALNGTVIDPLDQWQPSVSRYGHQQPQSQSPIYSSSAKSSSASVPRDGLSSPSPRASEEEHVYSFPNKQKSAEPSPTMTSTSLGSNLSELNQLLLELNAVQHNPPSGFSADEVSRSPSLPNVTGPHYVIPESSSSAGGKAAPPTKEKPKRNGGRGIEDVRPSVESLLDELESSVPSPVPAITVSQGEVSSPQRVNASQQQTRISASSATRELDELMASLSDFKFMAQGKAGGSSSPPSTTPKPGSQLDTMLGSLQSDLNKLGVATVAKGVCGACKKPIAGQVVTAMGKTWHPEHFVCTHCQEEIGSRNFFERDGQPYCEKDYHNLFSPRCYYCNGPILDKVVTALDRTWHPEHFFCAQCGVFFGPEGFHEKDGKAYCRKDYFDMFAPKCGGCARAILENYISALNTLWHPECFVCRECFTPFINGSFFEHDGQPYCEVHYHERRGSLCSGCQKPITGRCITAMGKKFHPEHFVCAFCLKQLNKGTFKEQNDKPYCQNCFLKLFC
Sequence of Paxillin (Gallus gallus (Chicken)), P49024 E151Q (P49024 whole entry E151Q): as the sequence (P49024 whole entry D146N/R147Q) above, with N146D, Q147R, E151Q counted along it

| Substance | effect of a mutation on the interaction [1] | effect of a mutation on the interaction [2] |
| --- | --- | --- |
| Paxillin (Gallus gallus (Chicken)), P49024 D146N;R147Q | decreasing interaction | decreasing interaction |
| Paxillin (Gallus gallus (Chicken)), P49024 E151Q | decreasing interaction |  |
